From article PMC139967 (BMC Biochemistry, 2002)

Key:
bovine-brain calmodulin = bovine-brain calmodulin (bovine, UniProt P62157 1-149); experiment: other fluorescence titration
[1] = target: Alexa Fluor 488 calmodulin (UniProt P62157 1-149); experiment: other fluorescence titration

| stoichiometry N (bovine-brain calmodulin) [peptide per calmodulin] | Binder | Kd [1] [nM] |
| --- | --- | --- |
| 1 | CRKHSIATFLQARWRGYHQRQKFL [bullfrog Myo1c IQ1 peptide] |  |
| 1 | CHMKHSAVEIQSWWRGTIGRRKAA [bullfrog Myo1c IQ2 peptide] |  |

| Binder | stoichiometry N (bovine-brain calmodulin) [peptide per calmodulin] | Kd [1] [nM] |
| --- | --- | --- |
| CKRKWAVDVVRRFIKGFIYRNQPR [bullfrog Myo1c IQ3 peptide] | 1 | 2000 |
